Our source for the Kd values is article doi:10.1101/509141.

Where two headings read alike, the source gives them in different places.

Experiment in all cases: BLI
For assay [1], the target named is Bacteriophage Sf6, whole virions (bacteriophage Sf6).
Assay [2] shares this target. This is another data set of the same source.
For assay [3] the target is unchanged. The source holds these as a separate data set.
Assay [4] shares this target. The source holds these as a separate data set.

As to “S. flexneri OmpA-TM N155E (domain or fragment)”, in assay [1], the Kd – broadly, a measure of binding affinity in units of concentration – lay in the range of 0.0069 to 0.0654 µM.
Regarding “OmpA-TM_(S.flex), transmembrane domain of S. flexneri outer membrane protein A (domain or fragment)”, the Kd in assay [2] is 0.0823 µM; in assay [3] it was 0.0899 µM; in assay [4] it was 0.0996 µM; in assay [1] it was 0.036 µM.
In assay [1], “OmpA-TM_(E.coli), transmembrane domain of E. coli outer membrane protein A (domain or fragment)” yielded a Kd of 0.025 µM.
